± gives the uncertainty stated by the source.
B1: Homeobox protein cut-like 1, residues 941 to 1008; numbered along this chain, P39880 (parent)
chain: QEVDTIELTRQVKEKLAKNGICQRIFGEKVLGLSQGSVSDMLSRPKPWSKLTQKGREPFIRMQLWLNG

Variants of: B1
Test: abundance fitness (aPCA) (normalised: wild type 0, dead -1); higher = more abundant; growth selection in yeast, the domain comes from the species named
Conditions: Homo sapiens

Variant	abundance fitness
W48F	-0.311 ± 0.078
W48Q	-0.867 ± 0.14
W48P	-0.999 ± 0.13
W48V	-0.672 ± 0.066
V12M	-0.084 ± 0.095
V12L	-0.359 ± 0.05
V12G	-0.01 ± 0.063
V12Q	-0.143 ± 0.083
R10Q	-0.135 ± 0.068
R10E	-0.056 ± 0.088
M41C	0.009 ± 0.12
M41P	-0.289 ± 0.071
M41Y	-0.011 ± 0.096
M41D	-0.194 ± 0.1
M41W	0.022 ± 0.064
R61H	-0.393 ± 0.094
R61M	-0.308 ± 0.063
G20R	-0.048 ± 0.047
K54F	-0.199 ± 0.1
K54C	-0.317 ± 0.074
K54I	-0.192 ± 0.13

Variant	abundance fitness
K46W	-0.285 ± 0.084
Q1K	0.076 ± 0.065
Q1T	-0.038 ± 0.076
Q1H	-0.673 ± 0.14
K18D	-0.397 ± 0.11
K18Y	-0.527 ± 0.15
K18Q	-0.134 ± 0.082
I6H	-0.005 ± 0.095
I6F	-0.081 ± 0.073
I6W	-0.368 ± 0.074
G32I	-0.584 ± 0.096
G32K	-0.1 ± 0.079
T9D	-0.168 ± 0.14
T9W	-0.197 ± 0.074
T9P	-0.28 ± 0.068
T5P	-0.354 ± 0.066
T5G	-0.329 ± 0.05
T5R	-0.157 ± 0.046
P47V	-0.079 ± 0.068
P47E	-0.067 ± 0.073
L64F	-0.326 ± 0.099

Variant	abundance fitness
L64E	0.185 ± 0.057
L64K	0.158 ± 0.064
L64I	-0.195 ± 0.12
D40R	-0.514 ± 0.078
D40P	-0.102 ± 0.071
L42W	-0.134 ± 0.076
L31E	-0.486 ± 0.067
L31F	-0.11 ± 0.091
L31P	-0.233 ± 0.073
R56E	-1.2 ± 0.17
F26S	-0.704 ± 0.071
F26P	-0.574 ± 0.085
F26E	-0.883 ± 0.093
F26L	-0.312 ± 0.051
F26Q	-0.721 ± 0.098
F26I	-0.45 ± 0.11
L33Y	-0.229 ± 0.078
L33K	-0.092 ± 0.07
L33E	-0.262 ± 0.081
L33I	0.144 ± 0.088
S34H	-0.139 ± 0.18

Variant	abundance fitness
I21N	-0.283 ± 0.15
E14R	-0.054 ± 0.045
E14Q	-0.14 ± 0.083
E14C	-0.086 ± 0.083
R24D	-0.074 ± 0.11
R24I	-0.29 ± 0.12
R24T	-0.268 ± 0.081
R24N	0.005 ± 0.14
R24L	-0.253 ± 0.055
R24E	0.109 ± 0.12
S49F	-0.19 ± 0.073
D4S	-0.261 ± 0.05
D4A	-0.376 ± 0.05
D4C	-0.243 ± 0.12
D4R	-0.368 ± 0.06
G36T	0.003 ± 0.066
G36S	-0.02 ± 0.053
G36D	0.028 ± 0.099
P58W	-0.007 ± 0.083
P58N	0.025 ± 0.089
P58H	-0.135 ± 0.096
